The target of experiment [1] is T1, SARS-CoV-2 omicron variant B.1.1.529 Spike ectodomain (tri-S, HexaPro) (SARS-CoV-2), P0DTC2. Kind of experiment: ELISA; unit from paragraph 452, none printed in the heatmap. The following applies: remark: other sources report otherwise. Background: ELISA stands for enzyme-linked immunosorbent assay.
Experiment [2] concerns the target T2, SARS-CoV-2 omicron variant B.1.1.529 RBD domain (SARS-CoV-2). The experiment is described as above. The following applies: remark: other sources report otherwise.
Experiment [3] addresses T1, SARS-CoV-2 omicron variant B.1.1.529 …. The conditions noted are these: remark: other sources report otherwise.
The target in experiment [4] is T3, SARS-CoV-2 delta variant B.1.617.2/3 RBD domain (SARS-CoV-2). In words: ELISA. The following applies: remark: other sources report otherwise.
The target in experiment [5] is T4, SARS-CoV-2 kappa variant B.1.617.1/3 RBD domain (SARS-CoV-2). Kind of experiment: ELISA. The conditions noted are these: remark: other sources report otherwise.
Experiment [6] deals with SARS-CoV-2 delta plus variant RBD (SARS-CoV-2). Kind of experiment: ELISA. The following applies: remark: other sources report otherwise.
Experiment [7] addresses T1, SARS-CoV-2 omicron variant B.1.1.529 …. In words: ELISA. Set-up: unit not given beside the values. The conditions noted are these: remark: other sources report otherwise.
Experiment [8] deals with T2, SARS-CoV-2 omicron variant B.1.1.529 …. Kind of experiment: ELISA. Also on record: unit not given beside the values. The conditions noted are these: remark: other sources report otherwise.
For experiment [9], the target named is T3, SARS-CoV-2 delta variant B.1.617.2/3 …. Kind of experiment: RBD-ACE2 competition ELISA [letter not given]. The conditions noted are these: remark: other sources report otherwise.
The target is the same in experiment [10]. Kind of experiment: RBD-ACE2 competition ELISA. Also on record: unit not given beside the values. The conditions noted are these: remark: other sources report otherwise.
In experiment [11] the target is T4, SARS-CoV-2 kappa variant B.1.617.1/3 …. In words: RBD-ACE2 competition ELISA. The conditions noted are these: remark: other sources report otherwise. Set-up: unit not given beside the values.
Experiment [12] concerns the target SARS-CoV-2 delta plus variant RBD (SARS-CoV-2). Kind of experiment: RBD-ACE2 competition ELISA. Also on record: unit not given beside the values. The following applies: remark: other sources report otherwise.
Experiment [13] has as its target T3, SARS-CoV-2 delta variant B.1.617.2/3 …. In words: ELISA. The conditions noted are these: remark: other sources report otherwise. Set-up: unit not given beside the values.
Experiment [14] addresses T4, SARS-CoV-2 kappa variant B.1.617.1/3 …. Kind of experiment: ELISA. Also on record: unit not given beside the values. The conditions noted are these: remark: other sources report otherwise.
In experiment [15] the target is SARS-CoV-2 delta plus variant RBD (SARS-CoV-2). In words: ELISA. Set-up: unit not given beside the values. The conditions noted are these: remark: other sources report otherwise.
Experiment [16] concerns the target T1, SARS-CoV-2 omicron variant B.1.1.529 …. In words: tri-S/ACE2 blocking ELISA [B]. The following applies: remark: other sources report otherwise.
Another experiment concerns the target ι (SARS-CoV-2). In words: flow cytometry (Mock 2.5). Background: A flow cytometer gives signals particle by particle.
Another experiment concerns the target κ (SARS-CoV-2). In words: flow cytometry (Mock 2.5).
Another experiment concerns the target ε (SARS-CoV-2). Kind of experiment: flow cytometry (Mock 2.5).
For a further experiment, the target named is γ (SARS-CoV-2). In words: flow cytometry (Mock 2.5).
Experiment [17] addresses SARS-CoV-2 δ variant spike protein, cell-expressed (SARS-CoV-2). In words: flow cytometry (Mock 2.5).
In a further experiment the target is α (SARS-CoV-2). In words: flow cytometry (Mock 2.5).
The next experiment has as its target β (SARS-CoV-2). In words: flow cytometry (Mock 2.5).

Data on three molecules can be found in US20240336672A1.

A word on the EC50: it is the concentration needed to bring the measured effect to its halfway point. What is called IC50 is the point on the concentration scale where inhibition reaches its midpoint.

B1: Adintrevimab (antibody, V domains shown)
VH: EVQLVESGGGLVKPGGSLRLSCAASGFTFSSYYMNWVRQAPGKGLEWVSSISEDGYSTYYPDSLKGRFTISRDSAKNSLYLQMNSLRADDTAVYYCARDFSGHTAWAGTGFEYWGQGTLVTVSS
VL: QSVLTQPPSVSGAPGQRITISCTGSSSNIGAGYDVHWYQQLPGTAPKLLIYGSSSRNSGVPDRFSGSKSGTSASLAITGLQAEDEADYYCQSYDSSLSVLYTFGTGTKVTVL
As to B1, the EC50 stood at 0.009 µg/mL in [1] and 0.056 µg/mL in [2]. Also, in [3], the IC50 is over 2 µg/mL. Besides, the results for the OD405nm in experiment [4], in experiment [5] and in [6] were 3.4, 3.6 and 3.4, respectively.

B2: Cv2.5213 (recombinant human IgG1) (antibody)
heavy: EVQLVESGGGLIQPGGSLRLSCAASGFTVSSNYMSWVRQAPGKGLEWVSLIYSGGSTYYADSVKGRFTISRDNSKNTLYLQMNSLRAEDTAVYYCARDLNYYGMDVWGQGATVTVSSASTKGPSVFPLAPSSKSTSGGTAALGCLVKDYFPEPVTVSWNSGALTSGVHTFPAVLQSSGLYSLSSVVTVPSSSLGTQTYICNVNHKPSNTKVDKKVEPKSCDKTHTCPPCPAPELLGGPSVFLFPPKPKDTLMISRTPEVTCVVVDVSHEDPEVKFNWYVDGVEVHNAKTKPREEQYNSTYRVVSVLTVLHQDWLNGKEYKCKVSNKALPAPIEKTISKAKQPREPQVYTLPPSRDELTKNQVSLTCLVKGFYPSDIAVEWESNGQPENNYKTTPPVLDSDGSFFLYSKLTVDKSRWQQGNVFSCSVMHEALHNHYTQKSLSLSPGK
light: not shown
For the molecule B2, the values for the AUC in experiment [7] and in [8] were 2 and 1, respectively. This molecule also displayed an IC50 (read off the curve) in [9] of 1 µg/mL. The AUC (RBD block.) in [10] turned out to be 91; in experiment [11] it was 150; in [12], 33. Besides, the AUC (RBD bind.) came to 13 in [13], 13 in experiment [14] and 12 in experiment [15]. For the same molecule, in experiment [16], the AUC of blocking worked out at 10.

B3: Imdevimab (antibody, V domains shown)
VH: QVQLVESGGGVVQPGRSLRLSCAASGFTFSNYAMYWVRQAPGKGLEWVAVISYDGSNKYYADSVKGRFTISRDNSKNTLYLQMNSLRTEDTAVYYCASGSDYGDYLLVYWGQGTLVTVSS
VL: QSALTQPASVSGSPGQSITISCTGTSSDVGGYNYVSWYQQHPGKAPKLMIYDVSKRPSGVSNRFSGSKSGNTASLTISGLQSEDEADYYCNSLTSISTWVFGGGTKLTVL
On to B3, for which the log10 ΔgMFI in the experiment with ι (SARS-CoV-2) is 4.9; with κ (SARS-CoV-2), 4.7; in the experiment with ε (SARS-CoV-2) it was 4.5; in the experiment with γ (SARS-CoV-2), 4.6; in experiment [17] it was 4.5; with α (SARS-CoV-2), 4.4. The same molecule showed a log10 ΔgMFI with β (SARS-CoV-2) of 3.9.
